Experimental data: patent US20160054331A1

Biological target: Hexa-His tag amidated peptide HHHHHH-CONH2
Assay: peptides on microspheres, PE anti-mouse IgG, Luminex

binding remaining after amidation of the C terminus (percent): < 15%
Substance: anti-C-term His tag antibody 3D5 (Invitrogen, Carlsbad, Calif.)
